Reference: paper PMC10779317

Biological target: Dnmt3a-CD (mouse (murine)) (UniProt O88508)
Assay: competition (inhibition of 30Uf/30Df methylation)
Details: 20 mM HEPES-NaOH pH 7.5, 100 mM KCl, 1 mM EDTA, 1 mM DTT, 100 uM AdoHcy, 10 nM DNA (60 nM for PWWP); FP temperature not stated; methylation competition at 37 C …

Sequence of Dnmt3a-CD (mouse (murine)) (O88508 630-908): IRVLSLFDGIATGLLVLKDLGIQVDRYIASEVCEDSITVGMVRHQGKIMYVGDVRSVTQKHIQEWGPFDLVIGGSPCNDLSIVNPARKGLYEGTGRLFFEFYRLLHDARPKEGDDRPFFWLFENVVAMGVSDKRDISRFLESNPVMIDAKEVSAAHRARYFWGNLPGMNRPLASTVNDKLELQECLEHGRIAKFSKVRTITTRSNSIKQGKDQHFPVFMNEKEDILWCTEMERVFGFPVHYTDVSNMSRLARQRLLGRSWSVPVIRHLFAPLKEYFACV

TGGGGAGGGTGAGGAGTGTGGGGAAGG [27G4-mut] showed an IC50 of 1.1 µM.
